Measured values: paper PMC12469269, “Investigating SMR Peptide Interactions with Breast Cancer-Associated Proteins” (International Journal of Molecular Sciences, 2025)

Key:
[1] = target: Recombinant Human GRP75/HSPA9B/Mortalin His Protein (human) (UniProt P38646); assay: SPR
[2] = target: Recombinant Human Vimentin Protein, CF (human) (UniProt P08670); assay: SPR
Sequence of Recombinant Human Vimentin Protein, CF (human) (P08670 whole entry): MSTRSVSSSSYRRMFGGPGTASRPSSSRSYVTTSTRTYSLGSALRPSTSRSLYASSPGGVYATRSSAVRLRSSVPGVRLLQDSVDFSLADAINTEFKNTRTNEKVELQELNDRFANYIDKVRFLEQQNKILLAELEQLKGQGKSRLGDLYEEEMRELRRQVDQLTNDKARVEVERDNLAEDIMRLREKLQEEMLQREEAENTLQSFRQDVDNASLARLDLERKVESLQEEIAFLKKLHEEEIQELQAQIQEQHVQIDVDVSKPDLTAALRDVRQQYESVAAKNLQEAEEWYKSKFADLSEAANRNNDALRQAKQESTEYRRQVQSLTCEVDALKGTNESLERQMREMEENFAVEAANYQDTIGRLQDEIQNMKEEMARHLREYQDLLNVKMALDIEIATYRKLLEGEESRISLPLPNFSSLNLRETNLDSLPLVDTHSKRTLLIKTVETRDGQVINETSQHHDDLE

Sequence of Recombinant Human GRP75/HSPA9B/Mortalin His Protein (human) (P38646 47-679): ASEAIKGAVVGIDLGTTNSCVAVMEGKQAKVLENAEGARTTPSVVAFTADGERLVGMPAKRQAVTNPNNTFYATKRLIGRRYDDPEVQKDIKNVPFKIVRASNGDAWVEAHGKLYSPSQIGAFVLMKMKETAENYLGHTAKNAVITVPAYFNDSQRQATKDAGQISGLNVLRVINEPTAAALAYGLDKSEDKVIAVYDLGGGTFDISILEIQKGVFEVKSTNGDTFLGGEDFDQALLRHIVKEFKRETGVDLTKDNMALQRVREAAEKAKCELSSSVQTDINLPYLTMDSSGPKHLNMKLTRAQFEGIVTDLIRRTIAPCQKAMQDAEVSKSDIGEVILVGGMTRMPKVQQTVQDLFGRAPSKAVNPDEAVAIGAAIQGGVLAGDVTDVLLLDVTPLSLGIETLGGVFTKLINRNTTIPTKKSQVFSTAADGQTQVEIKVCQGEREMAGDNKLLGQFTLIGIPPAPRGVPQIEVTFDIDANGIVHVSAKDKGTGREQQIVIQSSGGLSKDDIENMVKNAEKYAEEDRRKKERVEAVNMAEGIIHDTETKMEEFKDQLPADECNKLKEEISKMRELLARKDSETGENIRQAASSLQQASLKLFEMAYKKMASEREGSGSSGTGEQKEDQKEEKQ

## SMRwt peptide
[1]
  Kd: 20.7 µM
[2]
  Kd: 6.63 µM
